As a reminder, the Kd is the equilibrium constant for the complex coming apart. What is called stoichiometry N is a count of units in the complex or per binding partner.

Where no end group is shown, it is not given here.

The values below come from PMC5339894, “G196 epitope tag system: a novel monoclonal antibody, G196, recognizes the small, soluble peptide DLVPR with high affinity” (Scientific Reports, 2017).

For test [1], the system named is anti-FLAG M2 mAb affinity column. Conditions: mild pH (pH 3.5–4.4); cited from earlier work. The source says:
Previously, we studied the subcellular localization of myocardin-related transcription factor (MRTF)-B, a shuttle protein between the nucleus and cytoplasm that is expressed in response to various stimuli.

For another test, the system named is mAb G196. Nature of the test: Western blot epitope mapping of bacterially expressed GST proteins with mAb G196. To be noted: purified or bacterially expressed GST proteins, SDS-PAGE, denaturing conditions. The class given is binding, mouse. As to the method:
To confirm that the G196 epitope is located on the C-terminal extension of the 4T-2 fragment, and to further determine the precise location of the G196 mAb epitope, double-stranded oligonucleotides encoding peptides containing the C-terminal extension were inserted into the BamHI/EcoRI restriction sites within the pGEX-6P-1 vector. Total protein lysates were prepared from Escherichia coli that had been transformed with individual GST fusion protein constructs.
All short 4T-2 fragments were generated by annealing complementary oligos. The oligos used to synthesize the indicated fragments are summarized (Fasmac, Kanagawa, Japan) in Supplementary Table 2. Annealing reaction mixtures contained equimolar amounts of each oligo and the reactions were performed in a thermal cycler, with initial denaturation at 98 °C for 3 min, followed by a temperature decrease of 2 °C every 20 s down to 4 °C to allow the oligos to anneal slowly. The oligos contained the BamHI/EcoRI restriction sites and the 4T-2 fragments were cloned into these restriction sites within the pGEX-6P-1 vector (GE Healthcare, Buckinghamshire, England).
A fragment of the GST gene, encoding residues 2–212, was prepared by polymerase chain reaction (PCR) amplification using the Pfu polymerase (BioAcademia) and the pGEX-6P-1 plasmid as the template. […]
In general terms: Immunoblotting shows a protein as a band on a membrane.

The target of test [2] is T1, synthetic peptide GSDLVPRGS (synthetic).
T1 construct: source: synthetic peptide (Tufts University Core Facility)
T1 chain: GSDLVPRGS
Description: ITC; VP-ITC, 25 C; cell: 25 uM G196 Fab in 20 mM Tris-HCl (pH 8.0), 150 mM NaCl; peptide (500 uM) injected; single-site model. To be noted: both partners purified. (In general: In ITC the heat of successive injections is recorded.)

On to `N=C(N)NCCC[C@H](N)C(=O)O` [Arg], for which the “dissociation of FLAG-tagged proteins from column” value in test [1] is given as “effectively dissociate FLAG-tagged proteins”.

As to “6P-12: GST fusion protein with C-terminal extension fragment inserted in pGEX-6P-1 ({GST}-SDLVPRGSP)”, the “recognition by mAb G196 in Western blot” value in the test with mAb G196 was “detected”.

B1: G196 antigen binding fragment (Fab) (Fab, V domains shown)
VH: QVKLQESGAELVKPGASVKLSCKASGYTFTNYWMHWVKLRPGQGFEWIGEINPSNGGSNYNEKFKRKATLTVDKSSSTAYMQLSSLTSEDSAVFYCSIWDSYFDYWGQGTTLTVSS
VL: NIVMTQSPKSMSMSVGERVTLTCKASENVVTYVSWYQQKPEQSPKLLIYGASNRYTGVPDRFTGSGSATDFTLTISSVQAEDLADYHCGQGYSYPYTFGGGTKLEIK
notes: Fab part of the heavy chain of m1; chain in PDB 5H2B; as the light chain of m1; also called G196 Fab; G196 IgG Fab; source: purified mAb G196 IgG fragmented using papain, Fab purified by protein A chromatography
With B1, in test [2], the Kd worked out at 1.25 ± 0.77 nM, the dH was -15.3 kcal/mol and the “stoichiometry N” value was 1.2 ± 0.05.
